This note sets out measurements from patent publication US20050085420A1, “Method of modulating apoptosis and compositions thereof” (priority 2003, published 2005).

Assay [1] relates to BAK-X complex. Description: DSS cross-linking of BAK-X complex in FL5.12 cells treated with death stimuli. As to conditions: TNFα plus cyclohexamide 5 hours, etoposide (VP16) 24 hours, 10 mM DSS. In kind it is cell-based. On the procedure: FIG. 1B is an illustration depicting the treatment of FL5.12 cells with either TNFα plus cyclohexamide (CHX) for 5 hours (lane 3), etoposide (VP16) for 24 hours (lane 4), or deprived of IL-3 for 18 hours (lane 5), followed by incubation with 10 mM DSS. The BAK-X complex was detected in whole cell lysates by an immunoblot developed with anti-BAK antibody.
Protein crosslinkers were used to search for a candidate protein that interacts with BAK at the mitochondria in viable cells. A ˜60 kD mobility-shifted complex immunoreactive with an antibody (Ab) to BAK was detected after treatment of purified mitochondria (FIG. 1A) or viable whole cells (FIG. 1B) with the crosslinker disuccinimidyl suberate (DSS). This presumed complex between BAK and a candidate ˜35 kD interacting protein was designated “BAK-X.” The ˜60 kD BAK-X complex was distinct in size as compared to BAK homo-oligomers detected by bismaleimidohexane (BMH) crosslinking (FIG. 1A). The same sized BAK complex was detected in multiple cell lines and in normal liver prior to death stimuli (FIG. 1C). The BAK-X complex was lost when mitochondria were treated with tBID (FIG. 1A, C) or cells were treated with death stimuli including TNFα, etoposide, or withdrawal of survival factor (FIG. 1B). Expression of BH3-only members BAD, BIM, or tBID killed cells and diminished the amount of BAK-X complex (FIG. 1D). […]

For another assay, the system named is wt MEFs. Description: Cell killing by expression of BH3-only members. In kind it is cell-based, mouse. Particulars: retroviral expression.
Assay [2] addresses T1, BAK-X complex (Mus musculus, UniProt O08734+Q60930).
T1 construct: isolation of mitochondria (50 μg) from wild-type (wt) mouse embryonic fibroblasts (MEFs); endogenous in cells; host or cells: mitochondria from wt MEFs
T1 sequence (O08734 2-209 limits assumed): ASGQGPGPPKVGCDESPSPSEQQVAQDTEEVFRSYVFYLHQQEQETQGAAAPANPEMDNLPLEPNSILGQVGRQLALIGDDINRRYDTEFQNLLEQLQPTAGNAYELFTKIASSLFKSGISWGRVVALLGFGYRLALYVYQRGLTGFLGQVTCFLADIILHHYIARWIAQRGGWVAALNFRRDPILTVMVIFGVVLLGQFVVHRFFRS
T1 sequence (Q60930 1-295): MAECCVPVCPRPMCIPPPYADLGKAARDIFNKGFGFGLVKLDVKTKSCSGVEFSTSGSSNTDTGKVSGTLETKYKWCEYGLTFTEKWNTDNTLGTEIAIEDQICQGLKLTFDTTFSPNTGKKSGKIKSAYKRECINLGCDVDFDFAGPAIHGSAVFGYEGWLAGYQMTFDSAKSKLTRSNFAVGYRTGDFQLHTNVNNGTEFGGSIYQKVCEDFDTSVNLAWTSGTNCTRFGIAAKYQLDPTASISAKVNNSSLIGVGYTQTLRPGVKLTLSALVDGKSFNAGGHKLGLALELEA
Description: BAK-X complex after retroviral transduction of BH3-only members in wt MEFs. In kind it is cell-based. As to conditions: 24 hours following retroviral transduction, DSS. On the procedure: FIG. 1D is a photograph depicting isolated mitochondria from wt MEFs, in which the isolated mitochondria were treated with DSS 24 hours following retroviral transduction of tBID, BIM, or BAD. The BAK-X complex was detected by an immunoblot developed with an anti-BAK antibody.
Murine vdac1, vdac2, N-terminal HA-tagged vdac2, N-terminal-HA tagged Bax or Bak, as well as wild type and mutant Bak (mBH1, W122A, G123E, R124A; mBH3, L75E) were cloned into the retroviral expression vector MSCV-IRES-GFP (pMIG). PcDNA3-tBID (wt and mutants) was described previously M. C. Wei et al., Genes Dev 14, 2060-71. (2000). Generation of amphotropic retroviruses and retroviral infection were described previously E. H. Cheng et al., Mol Cell 8, 705-11. (2001).
Protein crosslinkers were used to search for a candidate protein that interacts with BAK at the mitochondria in viable cells. […] Wei et al., Genes Dev 14, 2060-71. (2000).

A further assay has as its target T2, VDAC2 (Mus musculus, UniProt Q60930).
T2 construct: expressed in transfected cells; host or cells: vdac1 -/-, vdac3 -/- mouse fibroblasts; wt or vdac2 -/- MEFs; Bax, Bak doubly deficient MEFs (retrovirus pMIG)
T2 sequence (Q60930 1-295): T1 sequence (Q60930 1-295)
Kind of assay: Anti-HA immunoprecipitation of HA-tagged VDAC2 with BH3-only molecules. In kind it is binding. The text has this: Murine vdac1, vdac2, N-terminal HA-tagged vdac2, N-terminal-HA tagged Bax or Bak, as well as wild type and mutant Bak (mBH1, W122A, G123E, R124A; mBH3, L75E) were cloned into the retroviral expression vector MSCV-IRES-GFP (pMIG). PcDNA3-tBID (wt and mutants) was described previously M. C. Wei et al., Genes Dev 14, 2060-71. (2000). Generation of amphotropic retroviruses and retroviral infection were described previously E. H. Cheng et al., Mol Cell 8, 705-11. (2001). Retroviral expression of each indicated protein was confirmed by immunoblot. […]
The strength of association between BIM-EL and VDAC2 was compared to the strength of the association, if any, between BIM-EL and BAK or BAX. Mitochondria isolated from Bax, Bak doubly deficient MEFs transduced with retrovirus expressing N-terminal HA-tagged BAX, BAK, or VDAC2 were solubilized in 1% CHAPS or 0.2% NP-40 buffer, followed by anti-HA immunoprecipitation. The immunoprecipitates were analyzed by an immunoblot developed with anti-BIM. […] These findings indicate that BH3-only competition for VDAC2 frees BAK, which, in the absence of its specific inhibitor VDAC2, is prone to auto-activating homo-oligomerization. […]

For a further assay, the system named is Bax -/- MEFs. Kind of assay: Annexin-V cell death after retroviral expression of VDAC1 or VDAC2 in Bax -/- MEFs. In kind it is cell-based, mouse. As to conditions: Bax -/- cells, retroviral expression, 1.2 μM staurosporine or 10 μg/ml etoposide, Annexin-V. On the procedure:
(§1) FIG. 3A are two graphs illustrating Bax -/- or Bak -/- MEFs at 2 days following retroviral expression of VDAC1, VDAC2, or GFP (MIG vector control), wherein the Bax -/- or Bak -/- MEFs were treated with 1.2 μM staurosporine (STS). Cell death was quantitated by flow cytometric detection of Annexin-V staining at indicated time points. Values shown are mean ±1 SD of three independent experiments.
(§2) FIG. 3B is a histogram depicting Bax -/- or Bak -/- MEFs at 2 days following retroviral expression of VDAC2 or GFP (MIG vector control), wherein the Bax -/- or Bak -/- MEFs were infected with tBID-expressing retrovirus. Cell death was quantitated by flow cytometric detection of Annexin-V staining at 24 hr. Values shown are mean ±1 SD of three independent experiments.
(§3) FIG. 6 are two graphs that depict Bax -/- or Bak -/- MEFs at 2 days following retroviral expression of VDAC1, VDAC2, or GFP (MIG vector control), wherein the Bax -/- or Bak -/- MEFs were treated with 10 μg/ml etoposide. Cell death was quantitated by flow cytometric detection of Annexin-V staining at indicated time points. Values shown are mean ±1 SD of three independent experiments.
(§4) Previous studies have shown that cells doubly deficient for BAX and BAK are resistant to intrinsic death stimuli, whereas cells singly deficient for BAX or BAK are still susceptible (M. C. Wei et al., Science 292, 727-30. (2001)). As VDAC2 interacts with BAK but not BAX, the ability of VDAC2 to modulate apoptosis mediated by BAK or BAX was tested. According to one hypothesis, VDAC2 might function as an inhibitor of BAK or VDAC2 itself might function as a proapoptotic factor once released from BAK. To address these alternatives VDAC 1 or VDAC2 was expressed in Bax -/- or Bak -/- singly deficient mouse embryonic fibroblasts (MEFs) followed by treatment with staurosporine or etoposide. […] Expression of VDAC2 inhibited tBID-induced apoptosis of Bax -/- cells but not Bak -/- cells, further supporting a selective role for VDAC2 in negatively regulating BAK-dependent apoptosis (FIG. 3B).

The next assay deals with Bak -/- MEFs. Description: Annexin-V cell death after retroviral expression of VDAC1 or VDAC2 in Bak -/- MEFs. The class given is cell-based, mouse. As to conditions: Bak -/- cells, retroviral expression, 1.2 μM staurosporine or 10 μg/ml etoposide, Annexin-V. On the procedure:
as §1, §2, §3, §4

As for `COc1cc([C@@H]2c3cc4c(cc3[C@@H](O[C@@H]3O[C@@H]5CO[C@@H](C)O[C@H]5[C@H](O)[C@H]3O)[C@H]3COC(=O)[C@H]23)OCO4)cc(OC)c1O` [etoposide], the “BAK-X complex when cells were treated with death stimuli” value with BAK-X complex [1] is “lost”.

Take TNFα: the “BAK-X complex when cells were treated with death stimuli” value with BAK-X complex [1] is given as “lost”.

B1: BIM: BH3-only BCL-2 family member, retrovirally expressed (protein, UniProt O54918 1-196, looked up)
Bcl-2-like protein 11: MAKQPSDVSSECDREGGQLQPAERPPQLRPGAPTSLQTEPQGNPDGEGDRCPHGSPQGPLAPPASPGPFATRSPLFIFVRRSSLLSRSSSGYFSFDTDRSPAPMSCDKSTQTPSPPCQAFNHYLSAMASIRQSQEEPEDLRPEIRIAQELRRIGDEFNETYTRRVFANDYREAEDHPQMVILQLLRFIFRLVWRRH
Turning to B1, in the assay with wt MEFs, the “cell killing on expression” value is “killed cells”. Besides, the “amount of BAK-X complex” value in the assay with BAK-X complex [2] is on record as “diminished”.

B2: BIM-EL: BH3-only molecule BIM-EL (protein)
chain: B1 Bcl-2-like protein 11
For B2, in the assay with VDAC2 (Bax, Bak doubly deficient MEFs with HA-tagged BAX, BAK or VDAC2, 1% CHAPS or 0.2% NP-40), the “strength of association with VDAC2 compared to BAX or BAK” value is on record as “associate more strongly with VDAC2 than BAX or BAK”. Moreover, the “interaction with HA-tagged VDAC2 (co-immunoprecipitation)” value in the assay with VDAC2 (mitochondria, anti-HA immunoprecipitation, 1% CHAPS (or 0.2% NP40)) is “strong interaction”.

B3: BAD: BH3-only BCL-2 family member, retrovirally expressed (protein, UniProt Q61337 1-204, looked up)
Bcl2-associated agonist of …: MGTPKQPSLAPAHALGLRKSDPGIRSLGSDAGGRRWRPAAQSMFQIPEFEPSEQEDASATDRGLGPSLTEDQPGPYLAPGLLGSNIHQQGRAATNSHHGGAGAMETRSRHSSYPAGTEEDEGMEEELSPFRGRSRSAPPNLWAAQRYGRELRRMSDEFEGSFKGLPRPKSAGTATQMRQSAGWTRIIQSWWDRNLGKGGSTPSQ
Take B3: in the assay with wt MEFs, the “cell killing on expression” value is listed as “killed cells”. In the assay with BAK-X complex [2], the “amount of BAK-X complex” value is given as “diminished”.

B4: VDAC1: murine VDAC1 isoform, retrovirally expressed (protein)
chain: AVPPTYADLGKSARDVFTKGYGFGLIKLDLKTKSENGLEFTSSGSANTETTKVNGSLETKYRWTEYGLTFTEKWNTDNTLGTEITVEDQLARGLKLTFDSSFSPNTGKKNAKIKTGYKREHINLGCDVDFDIAGPSIRGALVLGYEGWLAGYQMNFETSKSRVTQSNFAVGYKTDEFQLHTNVNDGTEFGGSIYQKVNKKLETAVNLAWTAGNSNTRFGIAAKYQVDPDACFSAKVNNSSLIGLGYTQTLKPGIKLTLSALLDGKNVNAGGHKLGLGLEFQA
On to B4, for which the “apoptosis after staurosporine or etoposide” value with Bax -/- MEFs and in the assay on Bak -/- MEFs was “no substantial effect” in each case.
